Data reported in paper PMC5681435 (2017).

Columns and labels:
GSTCDK6 = GSTCDK6 (human, UniProt Q00534 1-326); test: SPR
GSTCDK4 = target: T1, GSTCDK4 (human, UniProt P11802 1-303); test: SPR
T1 chain: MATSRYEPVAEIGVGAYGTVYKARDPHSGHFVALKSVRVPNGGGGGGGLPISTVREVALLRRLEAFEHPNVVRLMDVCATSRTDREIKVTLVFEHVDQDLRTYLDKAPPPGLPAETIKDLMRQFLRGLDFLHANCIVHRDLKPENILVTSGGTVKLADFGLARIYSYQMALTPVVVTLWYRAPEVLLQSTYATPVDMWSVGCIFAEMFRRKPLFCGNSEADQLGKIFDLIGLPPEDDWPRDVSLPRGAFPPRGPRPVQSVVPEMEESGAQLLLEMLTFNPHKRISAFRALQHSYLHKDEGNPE

Chain of GSTCDK6 (Q00534 whole entry): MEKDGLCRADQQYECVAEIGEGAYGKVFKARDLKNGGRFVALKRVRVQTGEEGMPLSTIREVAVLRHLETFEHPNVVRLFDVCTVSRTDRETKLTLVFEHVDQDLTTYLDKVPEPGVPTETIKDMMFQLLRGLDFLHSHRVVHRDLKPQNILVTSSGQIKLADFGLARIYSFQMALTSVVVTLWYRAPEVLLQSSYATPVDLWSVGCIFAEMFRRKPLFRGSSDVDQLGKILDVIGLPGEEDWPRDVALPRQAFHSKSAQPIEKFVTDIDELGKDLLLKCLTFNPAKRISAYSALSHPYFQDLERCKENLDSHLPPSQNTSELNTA

Kd (GSTCDK6): 7 µM
Kd (GSTCDK4): 0.347 µM
B1: Cdc37 (analyte of the SPR titrations) (natural protein)
chain: MVDYSVWDHIEVSDDEDETHPNIDTASLFRWRHQARVERMEQFQKEKEELDRGCRECKRKVAECQRKLKELEVAEGGKAELERLQAEAQQLRKEERSWEQKLEEMRKKEKSMPWNVDTLSKDGFSKSMVNTKPEKTEEDSEEVREQKHKTFVEKYEKQIKHFGMLRRWDDSQKYLSDNVHLVCEETANYLVIWCIDLEVEEKCALMEQVAHQTIVMQFILELAKSLKVDPRACFRQFFTKIKTADRQYMEGFNDELEAFKERVRGRAKLRIEKAMKEYEEEERKKRLGPGGLDPVEVYESLPEELQKCFDVKDVQMLQDAISKMDPTDAKYHMQRCIDSGLWVPNSKASEAKEGEEAGPGDPLLEAVPKTGDEKDVSV
